Data published in patent publication US20230220589A1.

Columns and labels:
[1] = molecular target: M48-modified F NTAA target peptides (M48-F-P2-peptide); experiment: Gini coefficient of P2 tolerance from multiplex encoding heatmap
[2] = molecular target: M48-modified F NTAA target peptides (M48-F-P2-peptide); experiment: Gini coefficient of P1 selectivity from multiplex encoding heatmap
[3] = molecular target: M44-modified I NTAA target peptides (M44-I-P2-peptide); experiment: Gini coefficient of P2 tolerance from multiplex encoding heatmap
[4] = molecular target: M44-modified I NTAA target peptides (M44-I-P2-peptide); experiment: Gini coefficient of P1 selectivity from multiplex encoding heatmap
[5] = molecular target: M44-modified F NTAA target peptides (M44-F-P2-peptide); experiment: Gini coefficient of P2 tolerance from multiplex encoding heatmap
[6] = molecular target: M44-modified F NTAA target peptides (M44-F-P2-peptide); experiment: Gini coefficient of P1 selectivity from multiplex encoding heatmap
[7] = molecular target: M90-modified A NTAA target peptide; experiment: affinity comparison between P1 residues (method not specified; BLI / encoding assay)
[8] = molecular target: M44-modified L NTAA target peptides (M44-L-P2-peptide); experiment: Gini coefficient of P2 tolerance from multiplex encoding heatmap
[9] = molecular target: M44-modified L NTAA target peptides (M44-L-P2-peptide); experiment: Gini coefficient of P1 selectivity from multiplex encoding heatmap
[10] = molecular target: M90-modified H NTAA target peptide; experiment: affinity comparison between P1 residues (method not specified; BLI / encoding assay)
[11] = molecular target: M44-modified A NTAA target peptides (M44-A-P2-peptide); experiment: Gini coefficient of P2 tolerance from multiplex encoding heatmap
[12] = molecular target: M44-modified A NTAA target peptides (M44-A-P2-peptide); experiment: Gini coefficient of P1 selectivity from multiplex encoding heatmap
[13] = molecular target: M90-modified M NTAA target peptide; experiment: affinity comparison between P1 residues (method not specified; BLI / encoding assay)
[14] = molecular target: M90-modified W NTAA target peptide; experiment: as above

B1: SEQ ID NO 28 (designed binder, not shown: small tags and cut ends; large carriers)
chain: QVSVQPNFQQDKFLGRWFLAGMASNSSWMREKFAALSVAKFVVAPATDGGLNTTTTLLRKNQCETFTRLLQPAGSLGSYSSRSPHLGSTVSGSVVETDYDQYALLYEQGSKGPGEDGRKAWLGSRTQTPRAELKEKFTAFSKAQGFTEDTIVFLPQTDKCMTEQ
B1 showed a P2 score [1] of 0.318 and a P1 score [2] of 0.392.

B2: SEQ ID NO 40 (designed binder, not shown: small tags and cut ends; large carriers)
chain: QVSVQPNFQQDKFLGRWFYAGLASNSSWIREKYAALSLAKSVVAPATDGGLNWTETSLRKNQCETGTVLLQPAGSLGSYSLRSPHHGSTISVSVVETDYDQYALVYRQGSKGPGEDSRRAILMSRTQTPRAELTEKFTAFSKAQGFTEDTIVFLPQTDKCMTEQ
Binder B2 has a P2 score [3] of 0.144 and a P1 score [4] of 0.357.

B3: SEQ ID NO 44 (designed binder, not shown: small tags and cut ends; large carriers)
chain: TVPDRSEIAGKWYVVALASNTEFFLREKDRIKTAMARISFLGEDELKVSLARPAPNGCHKAEWTFKKTSDDGEVYTSFLAKFKVEVLDTDYKSYAVIYATPVKDGRTRHEMLLYSRSPEVSPAATAIFRKLAGERNYTDEMVAMLPRQEECTVDEV
For B3, the P2 score [5] was 0.485 and the P1 score [6] was 0.241.

B4: SEQ ID NO 41 (designed binder, not shown: small tags and cut ends; large carriers)
chain: QVSVQPNFQQDKFLGRWFYAGMASNSSWLREKSAALSAAKFVVAPATDGGLNFTETFLRKNQCETTTILLQPAGSLGSYSVRSPHVGSTVSISVVETDYDQYALFYVQGSKGPGEDNRMALLGSRTQTPRAELKEKFTAFSKAQGFTEDTIVFLPQTDKCMTEQ
B4 showed a P2 score [3] of 0.217 and a P1 score [4] of 0.323.

B5: SEQ ID NO 54 (designed binder, not shown: small tags and cut ends; large carriers)
chain: QIPLCANLVPVPITNATLDRITGKWFVIASATRNEEYNKSVQRQQGTVFYYTPNKTEDTIFVRRYQTRQNQCFYNSSYLNVQRENGTVSFYEGGRELVFHLLFLRDTKTLMWGLYLDDEKNWGLEFFADKPETTKEQLGEFYEALDCLRIPRSDVMYTDWKKDKCEPLEKQHEKERKQEEGES
B5 showed a fold affinity over an otherwise identical peptide with a different P1 [7] of over 2 fold.

B6: SEQ ID NO 43 (designed binder, not shown: small tags and cut ends; large carriers)
chain: TVPDRSEIAGKWYVVALASNTEFVLREKDWLKLAMARISFLGEDELKVSMTTPGPNGCTKWERTLKKTSDDGEVYSSPRAKEKVEVLDTDYKSYAVIYATAVKDGRTLHEMWLYSRSPEVSPAATAIFRKLAGERNYTDEMVAMLPRQEECTVDEV
Work on B6 yielded a P2 score [5] of 0.359 and a P1 score [6] of 0.408.

B7: SEQ ID NO 38 (designed binder, not shown: small tags and cut ends; large carriers)
chain: QVSVQPNFQQDKFLGRWFPAGFASNSSWDREKPAALSLAKMVVAPATDGGLNWTETYLRKNQCETTTHLLQPAGSLGSYSYRSPHFGSTRSLSVVETDYDQYALFYSQGSKGPGEDHRGAWLLSRTQTPRAELKEKFTAFSKAQGFTEDTIVFLPQTDKCMTEQ
B7 showed a P2 score [8] of 0.251 and a P1 score [9] of 0.403.

B8: SEQ ID NO 55 (designed binder, not shown: small tags and cut ends; large carriers)
chain: QIPLCANLVPVPITNATLDRITGKWFRIASAFRNEEYKKSVQEVQTTSFYFTPNKTEDTIFARFYQTRQNQCFYNSSYLNVQRENGTVSLYSGGREAVLHLLFLRDTKTLMLGVYLDDEKNWGLSFYADKPETTKEQLGEFYEALDCLRIPRSDVMYTDWKKDKCEPLEKQHEKERKQEEGES
B8 gave a fold affinity over an otherwise identical peptide with a different P1 [10] of 2 fold.

B9: SEQ ID NO 29 (designed binder, not shown: small tags and cut ends; large carriers)
chain: QVSVQPNFQQDKFLGRWFVAGVASNSSWMREKVAALSGAKVVVAPATDGGLNYTETWLRKNQCETWTGLLQPAGSLGSYSQRSPHGGSTNSLSVVETDYDQYALLYVQGSKGPGEDPRVAVLWSRTQTPRAELKEKFTAFSKAQGFTEDTIVFLPQTDKCMTEQ
In the case of B9, the P2 score [1] is reported as 0.387 and the P1 score [2] is reported as 0.189.

B10: SEQ ID NO 22 (designed binder, not shown: small tags and cut ends; large carriers)
chain: QVSVQPNFQQDKFLGRWFTAGLASNSSWLREKFAALSHAKTVVAPATDGGLNLTVTVLRKNQCETSTLLLQPAGSLGSYSRRSPHVGSTGSVSVVETDYDQYALIYDQGSKGPGEDWRIAELVSRTQTPRAELKEKFTAFSKAQGFTEDTIVFLPQTDKCMTEQ
B10 was tested, and the P2 score [8] was 0.431 and the P1 score [9] was 0.418.

B11: SEQ ID NO 26 (designed binder, not shown: small tags and cut ends; large carriers)
chain: QVSVQPNFQQDKFLGRWFAAGYASNSSWRRERSAALSMAKVVVAPATDGGLNWTETILRKNQCETATNLLQPAGSLGSYSIRSPHAGSTSSMSVVETDYDQYALLYAQGSKGPGEDFRLAILLSRTQTPRAELKEKFTAFSKAQGFTEDTIVFLPQTDKCMTEQ
B11 gave a P2 score [8] of 0.498 and a P1 score [9] of 0.501.

B12: SEQ ID NO 36 (designed binder, not shown: small tags and cut ends; large carriers)
chain: QDSTQNLIPAPPLISVPLQPGFWTERFQGRWFIVGAAGNAVQKERQSRVTMGSVIWELQEDNSYNLTFISVRGQGCRYWIETWVPSSRPGQFTLGNIHSYPQIQSADVQVADTDYDQFAMVFVQYTSENKQYFMVRLLGRTKGLSDELKERFVSFAKSLGLKDNNIVFSVPTDQCIDN
For B12, the P2 score [3] was 0.197 and the P1 score [4] was 0.326.

B13: SEQ ID NO 46 (designed binder, not shown: small tags and cut ends; large carriers)
chain: TVPDRSEIAGKWYVVALASNTEFHLREKDNLKVAMARISFLGEDELKVSEAVPTPNGCMKHESTWKKTSDDGEVYRSRKAKQKVEVLDTDYKSYAVIYATRVKDGRTHHWMLLYSRSPEVSPAATAIFRKLAGERNYTDEMVAMLPRQEECTVDEV
In the case of B13, the P2 score [8] is reported as 0.289 and the P1 score [9] is reported as 0.225.

B14: SEQ ID NO 37 (designed binder, not shown: small tags and cut ends; large carriers)
chain: QDSTQNLIPAPPLISVPLQPGFWTERFQGRWFLVGLAGNAVQKERQSRRTMSSLILELQEDNSYNETWINVRGQGCRYRIGTVVPSSRPGQFTLGNIHSYPQIQSLDVQVADTDYDQFAMVFTQFTSENKQYFYVRLMGRTKGLSDELKERFVSFAKSLGLKDNNIVFSVPTDQCIDN
B14 showed a P2 score [11] of 0.195 and a P1 score [12] of 0.319.

B15: SEQ ID NO 25 (designed binder, not shown: small tags and cut ends; large carriers)
chain: QVSVQPNFQQDKFLGRWFIAGLASNSSWVREKSAALSQAKVVVAPATDGGLNVTVTVLRKNQCETYTVLLQPAGSLGSYSSRSPHFGSTVSLSVVETDYDQYALWYAQGSKGPGEDMRHAELWSRTQTPRAELKEKFTAFSKAQGFTEDTIVFLPQTDKCMTEQ
B15 showed a P2 score [8] of 0.543 and a P1 score [9] of 0.478.

B16: SEQ ID NO 30 (designed binder, not shown: small tags and cut ends; large carriers)
chain: QDSTQNLIPAPPLISVPLQPGFWTERFQGRWFNVGIAGNAVQKERQSRFTMLSLISELQEDNSYNWTLISVRGQGCRYRILTWVPSSRPGQFTLGNIHSYPQIQSLDVQVADTDYDQFAMVFAQGTSENKQYFEVILMGRTKGLSDELKERFVSFAKSLGLKDNNIVFSVPTDQCIDN
In the case of B16, the P2 score [5] is reported as 0.378 and the P1 score [6] is reported as 0.433.

B17: SEQ ID NO 56 (designed binder, not shown: small tags and cut ends; large carriers)
chain: QIPLCANLVPVPITNATLDRITGKWFLIASAIRNEEYNKSVQAVQSTAFYWTPNKTEDTIFARYYQTRQNQCFYNSSYLNVQRENGTVSWYAGGREFVSHLLFLRYTKTLMWGGYLDDEKNWGLEFYADKPETTKEQLGEFYEALDCLRIPRSDVMYTDWKKDKCEPLEKQHEKERKQEEGES
Binder B17 has a fold affinity over an otherwise identical peptide with a different P1 [13] of over 2 fold.

B18: SEQ ID NO 32 (designed binder, not shown: small tags and cut ends; large carriers)
chain: QDSTQNLIPAPPLISVPLQPGFWTERFQGRWFSVGMAGNAVQKERQSRFTMGSCIMELQEDNSYNLTFIGVRGQGCRYRILTWVPSSRPGQFTLGNIHSYPQIQSADVQVADTDYDQFAMVFWQTTSENKQYFAVELWGRTKGLSDELKERFVSFAKSLGLKDNNIVFSVPTDQCIDN
For B18, the P2 score [5] was 0.379 and the P1 score [6] was 0.173.

B19: SEQ ID NO 39 (designed binder, not shown: small tags and cut ends; large carriers)
chain: QVSVQPNFQQDKFLGRWFLAGLASNSSWAREKIAALSDAKFVVAPATDGGLNGTVTVLRKNQCETATGLLQPAGSLGSYSWRSPHDGSTLSLSVVETDYDQYALVYEQGSKGPGEDLRIAALWSRTQTPRAELKEKFTAFSKAQGFTEDTIVFLPQTDKCMTEQ
Binder B19 has a P2 score [8] of 0.426 and a P1 score [9] of 0.286.

B20: SEQ ID NO 23 (designed binder, not shown: small tags and cut ends; large carriers)
chain: QVSVQPNFQQDKFLGRWFLAGAASNSSWLREKNAALSYAKLVVAPATDGGLNSTVTRLRKNQCETETRLLQPAGSLGSYSWRSPHLGSTLSLSVVETDYDQYALVYAQGSKGPGEDVRGAELLSRTQTPRAELKEKFTAFSKAQGFTEDTIVFLPQTDKCMTEQ
For B20, the P2 score [5] was 0.456 and the P1 score [6] was 0.387.

B21: SEQ ID NO 52 (designed binder, not shown: small tags and cut ends; large carriers)
chain: QIPLCANLVPVPITNATLDRITGKWFIIASASRNEEYNKSVQQAQSTAFYITPNKTEDTIFLRRYQTRQNQCFYNSSYLNVQRENGTVSYYRGGRERVSHLLFLRDTKTLMIGSYLDDEKNWGLVFGADKPETTKEQLGEFYEALDCLRIPRSDVMYTDWKKDKCEPLEKQHEKERKQEEGES
B21 gave a fold affinity over an otherwise identical peptide with a different P1 [14] of over 2 fold.

B22: SEQ ID NO 47 (designed binder, not shown: small tags and cut ends; large carriers)
chain: TVPDRSEIAGKWYVVALASNTEFFLREKDNFKMAMARISFLGEDELKVSEAVPTPNGCFKAEFTGKKTSDDGEVYWSQTAKYKVEVLDTDYKSYAVIYATNVKDGRTVHAMNLYSRSPEVSPAATAIFRKLAGERNYTDEMVAMLPRQEECTVDEV
B22 was tested, and the P2 score [11] was 0.466 and the P1 score [12] was 0.173.

B23: SEQ ID NO 24 (designed binder, not shown: small tags and cut ends; large carriers)
chain: QVSVQPNFQQDKFLGRWFYAGLASNSSWLREKCAALSSAKAVVAPATDGGLNVTETWLRKNQCETGTELLQPAGSLGSYSFRSPHRGSTLSLSVVETDYDQYALLYRQGSKGPGEDERRALLMSRTQTPRAELKEKFTAFSKAQGFTEDTIVFLPQTDKCMTEQ
In the case of B23, the P2 score [8] is reported as 0.375 and the P1 score [9] is reported as 0.452.
